Measurements taken from patent US20100184959A1 (AstraZeneca / MedImmune, published 2010).
Numbering of substitutions follows the chain as printed.

B1: Fc polypeptide variant 136D04b (Fcγ1, in vitro translated) (other)
chain: AHTCPPCPAPELLGGPSVFLFPPKPKDTLMISRTPEVTCVVVDVSHEDPEVKFNWYVDGVEVHNAKTKPREEQYNSTYRVVSVLTVLHQDWLNGKEYKCKVSNKALPAPIEKIISKAKGQPREPQVYTLPPSREEMTKNQVSLTCLVKGFYPSDIAVEWESNGQPENNYKTTPPVLDSDGSFFLYSKLTVDMSRWQQGNVFSCSVMHEALHNHYTQKSLSLSPGK
notes: Fc region only, in vitro translated with 35S-methionine for RIA
B2: Fc polypeptide variant 136D04a (Fcγ1, in vitro translated) (other)
chain: B1 chain with P223R
notes: as for B1
B3: Fc polypeptide variant 110H08 (Fcγ1, in vitro translated) (other)
chain: B1 chain with P22L, K24E, I113T, D177G, K187R, M192K
notes: as for B1
B4: Fc polypeptide variant 110B09 (Fcγ1, in vitro translated) (other)
chain: B1 chain with N54D, R70Q, V83A, I113T, I155V, T172A, V190A, M192K, K217E
notes: as for B1
B5: Fc polypeptide variant 136G11 (Fcγ1, in vitro translated) (other)
chain: AHTCPPCPAPELLGGPSVFLFPPKAKDTLMISRTPKVTCVVVDVSHEDPEVKFNWYVNGVEVHNARTKPREEQYDSAYRVVSVLTVLHQDWLNGKEYKCEVSNKALPAPIEKTISKAKGRPREPQVYTLPPAREEMTKNQVSPTCLVKGFYPSDIAVEWESNGQPENNYKTTPPVLDSDGSFFLYSKLTVDKSRWQQGNVFSCSVMHEALHNHYTQKSLSLSPGK
notes: as for B1
B6: Fc polypeptide variant 135E07 (Fcγ1, in vitro translated) (other)
chain: B1 chain with H2Y, P8S, V101A, E111D, I113T, K116R, S142C, M192K
notes: as for B1
B7: Fc polypeptide variant 126F07 (Fcγ1, in vitro translated) (other)
chain: B1 chain with P6L, T67A, I113T, L143Q, N167S, M192K, S218G
notes: as for B1
B8: Fc polypeptide variant 135A09 (Fcγ1, in vitro translated) (other)
chain: B1 chain with E47K, Y78H, I113T, Q120R, M192K, V200I, G224A
notes: as for B1
B9: Fc polypeptide variant 135C09 (Fcγ1, in vitro translated) (other)
chain: B1 chain with T3A, R79C, S82G, D90N, N93D, I113T, L129S, M192K, N199S
notes: as for B1
B10: Fc polypeptide variant 126G05 (Fcγ1, in vitro translated) (other)
chain: B1 chain with F19L, V51A, I113T, K118Q, M192K, L219F
notes: as for B1
B11: Fc polypeptide variant 125H10 (Fcγ1, in vitro translated) (other)
chain: B1 chain with M30T, P69L, I113T, P130A, R133W, N168D, S186G, M192K, S204F, A209S
notes: as for B1
B12: Fc polypeptide variant 121F02 (Fcγ1, in vitro translated) (other)
chain: B1 chain with F21S, P25L, D43V, V44A, I113T, S161N, T189I, M192K
notes: as for B1
B13: Fc polypeptide variant 125B01 (Fcγ1, in vitro translated) (other)
chain: B1 chain with H2N, F21L, I113T, T171A, M192K, H211P
notes: as for B1
B14: Fc polypeptide variant 125E05 (Fcγ1, in vitro translated) (other)
chain: B1 chain with V18A, S45G, I113T, G119E, E134G, M192K
notes: as for B1
B15: Fc polypeptide variant 3C11 (Fcγ1, in vitro translated) (other)
chain: B1 chain with I113T, Q125R, N139Y, M192K, K217R
notes: as for B1
B16: Fc polypeptide variant 2C06 (Fcγ1, in vitro translated) (other)
chain: B1 chain with E61G, N93K, E111G, I113T, R122Q, L143P, M192K, S220T
notes: as for B1
B17: Fc polypeptide variant 2A11 (Fcγ1, in vitro translated) (other)
chain: B1 chain with C39Y, K68E, L84F, Q89R, E111G, I113T, M192K, Q216L
notes: as for B1
B18: Fc polypeptide variant 2H06 (Fcγ1, in vitro translated) (other)
chain: B1 chain with E47G, Y56H, N103S, I113T, K148R, M192K
notes: as for B1
B19: Fc polypeptide variant 2F01 (Fcγ1, in vitro translated) (other)
chain: AHTCPPCPAPELLGGPPVFLFPPKPKDTLMIPRTPEVTCVVVDVNHEDPEVKFNWYVDGVEVRNAKTKPREEQYNSTYRVVSVLTVLHQDWLSGKEYKCKVSNKALPAPIEKTISKAKGQPREPQVYTLPPSREEMTKNQVSLTCLVKGLYPSDITVEWESNGQPENDCKTTPPVLDSDGSSFLYSKLTVDKSRWQQGNVFSCSVMHKAPHNHYTQKSLSLSPGE
notes: as for B1

Molecular target: T1, human FcγRIIIa V158 allotype, extracellular domain (human, UniProt P08637 17-208)
T1 construct: extracellular domain; expressed in HEK-EBNA cells; also called hFcγRIIIa; CD16; not shown: Flag10His tag of the vector
Experiment: RIA, 35S-labelled Fc on coated receptor
Source text: Fc polypeptide variants were screened for binding to FcγRIIIa using a RIA (radio immunoassay) as described in Jermutus et al. (2001, PNAS 98(1): 75-80). The Fc region from the plasmid for each variant was PCR amplified to produce a linear DNA template. This template was purified and a T7 promoter sequence attached at the 5′ end to enable in vitro transcription. The resulting mRNA was purified using G25 Sephadex™ columns. For each variant, in vitro translations in the presence of 35S-labelled methionine were set up at 37° C. for 40 min. The translations were stopped using PBS with 0.05% Tween 20. The translation mixture was added to a plate coated with 100 nM hFcγRIIIa and incubated for 2 hours at room temperature. The plates were washed three times in PBS with 0.05% Tween 20 and three times in PBS. The bound protein was eluted with 0.1M triethylamine and the radiolabel quantified by liquid scintillation counting.

T1 sequence (P08637 17-208 F176V): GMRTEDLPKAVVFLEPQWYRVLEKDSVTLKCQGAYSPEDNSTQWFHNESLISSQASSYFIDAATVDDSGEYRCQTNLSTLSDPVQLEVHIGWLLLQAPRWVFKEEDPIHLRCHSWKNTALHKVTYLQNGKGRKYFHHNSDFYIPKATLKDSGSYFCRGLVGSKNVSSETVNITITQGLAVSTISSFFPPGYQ

Row | RIA for RIIIa (V158) | Binder
1 | 2.3 fold over wild-type | B1
2 | 2.3 fold over wild-type | B2
3 | 2.7 fold over wild-type | B3
4 | 4.4 fold over wild-type | B4
5 | 2.3 fold over wild-type | B5
6 | 1.7 fold over wild-type | B6
7 | 1.9 fold over wild-type | B7
8 | 3.4 fold over wild-type | B8
9 | 1.7 fold over wild-type | B9
10 | 1.8 fold over wild-type | B10
11 | 1.7 fold over wild-type | B11
12 | 1.7 fold over wild-type | B12
13 | 1.3 fold over wild-type | B13
14 | 4.7 fold over wild-type | B14

Molecular target: T2, human C1q (human, UniProt P02745 23-245; P02746 28-253; P02747 29-245)
T2 construct: Human C1q (Sigma) in the ELISA; hC1q coated at 100 nM in the RIA; also called hC1q
Experiment: RIA, 35S-labelled Fc on coated C1q
Source text: IgG1 Fc variants arising from round three outputs of Fcγ1 selections against human C1q using ribosome display, were screened for binding using the primary RIA as described in Jermutus et al. (2001, PNAS 98(1): 75-80). In brief, the Fc region from the plasmid for each variant (96 well format) was PCR amplified to produce a linear DNA template. This template was gel purified and reamplified attaching the T7 promoter sequence for T7 directed in vitro transcription and the resulting mRNA purified on G25 Sephadex columns. For each variant, in vitro translations in the presence of 35S-labelled methionine was performed at 37° C. for 40 mins. The translations were stopped with PBS with 0.05% Tween 20. The translation mixture was incubated on a plate coated with 100 nM hC1q for 2 hours at room temperature. Plates were washed three times in PBS with 0.05% Tween 20 and three times in PBS. The remaining radioactivity was eluted with 0.1M triethylamine and quantified by liquid scintillation counting.

T2 sequence (P02745 23-245 limits assumed, chain 1 of 3): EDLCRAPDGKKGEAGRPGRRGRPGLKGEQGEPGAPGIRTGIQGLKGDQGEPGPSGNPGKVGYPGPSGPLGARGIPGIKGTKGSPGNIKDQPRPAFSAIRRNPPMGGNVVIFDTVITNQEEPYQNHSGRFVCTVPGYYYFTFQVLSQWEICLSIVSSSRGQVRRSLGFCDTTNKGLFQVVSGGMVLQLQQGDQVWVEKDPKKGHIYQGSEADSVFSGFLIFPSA
T2 sequence (P02746 28-253 limits assumed, chain 2 of 3): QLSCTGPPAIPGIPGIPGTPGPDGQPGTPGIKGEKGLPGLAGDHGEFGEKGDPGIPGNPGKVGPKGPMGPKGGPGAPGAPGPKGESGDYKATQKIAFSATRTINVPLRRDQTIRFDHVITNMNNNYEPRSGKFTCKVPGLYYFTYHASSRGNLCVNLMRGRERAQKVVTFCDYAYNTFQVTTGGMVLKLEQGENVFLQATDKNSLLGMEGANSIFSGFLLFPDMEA
T2 sequence (P02747 29-245 limits assumed, chain 3 of 3): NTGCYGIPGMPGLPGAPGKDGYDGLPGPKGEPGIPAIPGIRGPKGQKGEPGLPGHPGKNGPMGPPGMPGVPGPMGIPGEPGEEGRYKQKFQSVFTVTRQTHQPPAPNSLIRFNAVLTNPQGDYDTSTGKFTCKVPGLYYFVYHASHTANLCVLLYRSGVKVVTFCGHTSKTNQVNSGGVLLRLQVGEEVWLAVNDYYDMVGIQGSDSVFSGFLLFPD

Row | RIA for C1q | Binder
15 | 1.2 fold over wild-type | B15
16 | 1.4 fold over wild-type | B16
17 | 2.4 fold over wild-type | B17
18 | 1.2 fold over wild-type | B18
19 | 1.5 fold over wild-type | B19
